What was measured:
Assay in all cases: SPR; KD relative to WT C2;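 further: biacore SPR at 37 °C, anti-C2 mAbs captured on an anti-human IgG chip, alanine or serine C2 surface mutants tested, KD from 1:1 fit compared with wild-type C2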
human C2 R688A = target: T1, human C2 R688A (human, UniProt P06681 21-752)
T1 sequence: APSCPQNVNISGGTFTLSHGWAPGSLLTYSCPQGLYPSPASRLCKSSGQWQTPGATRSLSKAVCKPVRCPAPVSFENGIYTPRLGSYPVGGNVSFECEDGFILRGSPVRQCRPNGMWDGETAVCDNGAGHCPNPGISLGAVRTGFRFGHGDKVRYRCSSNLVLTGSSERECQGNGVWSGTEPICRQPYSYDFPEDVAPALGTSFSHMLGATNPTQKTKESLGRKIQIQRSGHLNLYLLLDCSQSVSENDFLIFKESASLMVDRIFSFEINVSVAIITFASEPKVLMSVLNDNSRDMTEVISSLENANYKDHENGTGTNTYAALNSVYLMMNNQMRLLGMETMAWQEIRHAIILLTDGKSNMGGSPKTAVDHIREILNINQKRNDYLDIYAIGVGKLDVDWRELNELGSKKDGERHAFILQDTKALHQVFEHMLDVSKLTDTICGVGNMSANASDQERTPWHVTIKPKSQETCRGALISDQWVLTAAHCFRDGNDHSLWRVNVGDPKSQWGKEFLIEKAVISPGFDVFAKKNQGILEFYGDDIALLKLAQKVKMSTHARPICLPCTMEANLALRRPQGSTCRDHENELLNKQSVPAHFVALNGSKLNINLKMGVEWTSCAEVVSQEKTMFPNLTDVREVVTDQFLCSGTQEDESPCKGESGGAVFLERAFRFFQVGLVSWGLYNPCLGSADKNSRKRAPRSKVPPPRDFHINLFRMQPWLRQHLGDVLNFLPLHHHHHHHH

human C2 R434A = target: T2, human C2 R434A (human, UniProt P06681 21-752)
T2 sequence: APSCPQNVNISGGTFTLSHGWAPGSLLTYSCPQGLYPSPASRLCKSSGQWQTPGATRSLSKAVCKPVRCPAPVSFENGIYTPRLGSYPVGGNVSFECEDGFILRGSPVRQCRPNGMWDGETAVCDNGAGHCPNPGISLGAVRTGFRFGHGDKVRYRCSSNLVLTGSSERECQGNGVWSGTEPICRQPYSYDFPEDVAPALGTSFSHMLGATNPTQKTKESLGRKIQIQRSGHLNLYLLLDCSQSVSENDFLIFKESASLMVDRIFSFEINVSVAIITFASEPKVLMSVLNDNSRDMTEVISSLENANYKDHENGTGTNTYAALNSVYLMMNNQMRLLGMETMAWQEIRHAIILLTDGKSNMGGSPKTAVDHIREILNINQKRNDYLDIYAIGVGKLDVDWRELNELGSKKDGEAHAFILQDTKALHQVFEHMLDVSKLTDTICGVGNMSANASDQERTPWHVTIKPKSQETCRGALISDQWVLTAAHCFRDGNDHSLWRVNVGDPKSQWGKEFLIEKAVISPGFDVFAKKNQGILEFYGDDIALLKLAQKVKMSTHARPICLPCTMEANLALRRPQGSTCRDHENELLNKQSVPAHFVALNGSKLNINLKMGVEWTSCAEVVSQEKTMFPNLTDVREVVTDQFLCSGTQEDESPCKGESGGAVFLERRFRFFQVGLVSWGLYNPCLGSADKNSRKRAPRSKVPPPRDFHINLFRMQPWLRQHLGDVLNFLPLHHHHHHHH

human C2 T442A = target: T3, human C2 T442A (human, UniProt P06681 21-752)
T3 sequence: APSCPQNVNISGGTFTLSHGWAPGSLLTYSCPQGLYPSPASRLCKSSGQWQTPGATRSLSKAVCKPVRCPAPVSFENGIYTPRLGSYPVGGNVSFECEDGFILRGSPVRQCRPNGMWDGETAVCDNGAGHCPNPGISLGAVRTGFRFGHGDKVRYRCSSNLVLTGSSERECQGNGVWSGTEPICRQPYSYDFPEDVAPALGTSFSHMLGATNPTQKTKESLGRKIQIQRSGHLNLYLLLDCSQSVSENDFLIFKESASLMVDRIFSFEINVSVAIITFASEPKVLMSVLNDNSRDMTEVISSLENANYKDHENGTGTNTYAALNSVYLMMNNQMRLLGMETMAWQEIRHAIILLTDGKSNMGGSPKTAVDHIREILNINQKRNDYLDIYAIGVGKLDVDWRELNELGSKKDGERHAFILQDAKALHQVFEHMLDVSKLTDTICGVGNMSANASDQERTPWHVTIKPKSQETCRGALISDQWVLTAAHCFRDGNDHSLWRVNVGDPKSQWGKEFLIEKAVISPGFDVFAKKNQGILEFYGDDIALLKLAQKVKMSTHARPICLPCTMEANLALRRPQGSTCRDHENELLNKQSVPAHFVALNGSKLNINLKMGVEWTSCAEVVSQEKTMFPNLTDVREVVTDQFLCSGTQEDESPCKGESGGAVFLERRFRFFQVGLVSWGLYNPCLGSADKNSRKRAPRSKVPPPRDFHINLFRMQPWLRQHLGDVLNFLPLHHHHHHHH

human C2 E476A = target: T4, human C2 E476A (human, UniProt P06681 21-752)
T4 sequence: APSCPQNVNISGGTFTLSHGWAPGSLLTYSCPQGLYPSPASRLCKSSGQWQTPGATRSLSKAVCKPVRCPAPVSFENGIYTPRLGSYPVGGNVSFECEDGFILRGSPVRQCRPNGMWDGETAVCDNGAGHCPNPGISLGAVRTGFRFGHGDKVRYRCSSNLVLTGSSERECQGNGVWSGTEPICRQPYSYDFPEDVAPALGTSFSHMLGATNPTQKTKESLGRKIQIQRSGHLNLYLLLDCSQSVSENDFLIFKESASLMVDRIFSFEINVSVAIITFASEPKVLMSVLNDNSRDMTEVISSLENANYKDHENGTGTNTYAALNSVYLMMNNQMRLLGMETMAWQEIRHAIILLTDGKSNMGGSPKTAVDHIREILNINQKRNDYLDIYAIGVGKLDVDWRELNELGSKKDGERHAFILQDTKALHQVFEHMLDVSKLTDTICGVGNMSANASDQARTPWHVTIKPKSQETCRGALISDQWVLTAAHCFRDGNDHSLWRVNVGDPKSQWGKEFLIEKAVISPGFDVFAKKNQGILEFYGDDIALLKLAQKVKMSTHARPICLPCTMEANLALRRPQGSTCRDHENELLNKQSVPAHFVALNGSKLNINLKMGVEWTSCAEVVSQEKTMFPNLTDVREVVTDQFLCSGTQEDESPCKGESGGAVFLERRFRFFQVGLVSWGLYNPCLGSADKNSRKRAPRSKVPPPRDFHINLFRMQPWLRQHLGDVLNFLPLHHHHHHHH

Fold diff (human C2 R688A): 3 fold
Fold diff (human C2 R434A): 7 fold
Fold diff (human C2 T442A): 2 fold
Fold diff (human C2 E476A): 2 fold
B1: RF16-214 (antibody, V domains shown)
VH: EVQLLESGGGLVQPGGSLRLSCAASGFTFSWYQMMWVRQAPGKGLEWVSRIYPSGGGTAYADSVKGRFTISRDNSKNTLYLQMNSLRAEDTAVYYCARDAGYGDNWGQGTLVTVSS
VL: QSALTQPPSVSVSPGQTASITCSGDKLGEKYASWYQQKAGQSPVMVIYQDRKRPSGIPERFSGSNSGNTATLTISGTQAMDEADYYCQAWDTRAVVFGGGTKLTVLG

— patent US20220332804A1 (CSL INNOVATION, published 2022)
